31 sequences from the supplement of paper PMC9170038 can be followed below.

This series relates to MS2 coat protein. Description: apparent KD of MS2 coat protein; designed switch direction (-1 OFF switch, 1 ON switch): -1; higher = weaker reporter binding. The method, boiled down: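 Normalised cluster fluorescence was curve-fitted, and each design's median over clusters is its apparent KD. Before this, SNAP-549-labelled MS2 coat protein was titrated from 0.7 or 1.5 nM, doubling to 3 µM, over RNA switches transcribed on Illumina chips by stalled E. coli RNA polymerase. Titrations had no input, 200 uM small-molecule ligand, or an oligonucleotide input, and steps lasted 0.8–1.5 h (lowest) to 10–20 min (highest).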

[1] abbreviates: input ligand: microRNA oligo, concentration not stated.
The mark [2] stands for this setting: Eterna round: R95, input ligand: microRNA oligo, concentration not stated.
Setting [3] is: Eterna round: R95, input ligand: FMN 200 uM.
The mark [4] stands for this setting: Eterna round: R95, input ligand: none.

Consider “ACAUGUGUUGUAGGAUAUAGGAUACAUGAGGAUCACCCAUGUGGAUUCAUGUCAAUGGAAACGUCCUAGAAGGACGACAACAUG [Ex NG2 #22] (Eterna round: R96, puzzle: Exclusion NG 2)”, for which the “apparent KD of MS2 coat protein” value (input ligand: FMN 200 uM) came to 59.5 nM, the “apparent KD of MS2 coat protein” value under setting [1] amounted to 42.7 nM and the “apparent KD of MS2 coat protein” value (input ligand: none) was 65 nM.

As for “ACAUGUUGCGCAGGAUAUGGGACACAUGAGGAUCACCCAUGUGGUUACAUGUCUUACCAAGCGUCCCAGAAGGGUGUGAACAUG [Ex NG2 #32] (Eterna round: R96, puzzle: Exclusion NG 2)”, the “apparent KD of MS2 coat protein” value is, setting by setting: (input ligand: FMN 200 uM) 26 nM; under setting [1], 16.5 nM; (input ligand: none) 20.3 nM.

With “ACAUUCUGAGGAUAUGUGCGCACUGACAUGAGGAUCACCCAUGUCCGAAUGUCCGAGACGACAGAAGGCAGUGAAU [Eternabot (L2) Solution 72] (Eterna round: R97, puzzle: Exclusion 5)”, the “apparent KD of MS2 coat protein” value reads like this: (input ligand: FMN 200 uM) 355 nM; (input ligand: none) 101 nM.

“ACAUUGGUAGUGAGGAUAUCGGUGAGAUAGAAUGACGAGAAGGCACAUGAGGAUCACCCAUGUAAGAUUGGGCA [JR_BMEx4_Sub042] (Eterna round: R97, puzzle: Brourd's mod of Exclusion 4)”: the “apparent KD of MS2 coat protein” value runs as follows: (input ligand: FMN 200 uM) 286 nM; (input ligand: none) 251 nM.

As to “ACCAAGCUAUGCACGUCUGACAUGAGGAUCACCCAUGUAGCCGGUCUCGGAAGGAGACAGGCUCCAGGUGGCUCAGA [Eternabot (Original) Solution 37] (Eterna round: R97, puzzle: Sensor, turn-off variant 1)”, the “apparent KD of MS2 coat protein” value (input ligand: FMN 200 uM) came out at 683 nM and the “apparent KD of MS2 coat protein” value (input ligand: none) was 667 nM.

Take “ACCAGCAUACGGAGAUCCAACAUGAGGAUCACCCAUGUCUGGAAAGCUUUUUGCUUGUCUUAUCCUCCUCUGUGUGU [Design #5] (Eterna round: R97, puzzle: Sensor, turn-off variant 1)”: the “apparent KD of MS2 coat protein” value (input ligand: FMN 200 uM) stood at 30.2 nM and the “apparent KD of MS2 coat protein” value (input ligand: none) was found to be 32.2 nM.

For the sequence “ACCGCUUCUGCAGGAUAUGGACAACAUGAGGAUCACCCAUGUGAUCUAUAAAGUAGUGGUGGCGUCCAGAAGGGCAGAUUAAGG [Maamabi] (Eterna round: R96, puzzle: Exclusion NG 2)”, the “apparent KD of MS2 coat protein” value was 197 nM (input ligand: FMN 200 uM), 48.2 nM under setting [1] and 96.3 nM (input ligand: none).

With “ACCUCACAUGAGGAUCACCCAUGUCAGGAUAUACAAACCGUGAUAAGACACGGUCGUAGUAGAAGGGACUAUGG [Xerereonte] (puzzle: Exclusion 1)”, the “apparent KD of MS2 coat protein” value under setting [2] was determined as 98.8 nM.

Consider “ACCUCACAUGAGGAUCACCCAUGUCAGGAUAUCUUUUAAAACACCAAUCGUGUCGCUGAGAGAAGGGACAUUAA [EX1 #23] (Eterna round: R97, puzzle: Exclusion 1)”, for which the “apparent KD of MS2 coat protein” value is, setting by setting: (input ligand: FMN 200 uM) 20.5 nM; (input ligand: none) 16 nM.

As for “ACCUCACAUGAGGAUCACCCAUGUCAGGAUAUGUACCUGGCCAAGACAAAAGCCAGAAGCAGAAGGGACUGCGG [Enrionerdi] (puzzle: Exclusion 1)”, the “apparent KD of MS2 coat protein” value turned out to be 72.5 nM under setting [3], 129 nM under setting [2] and 93.6 nM under setting [4].

For “ACCUGGUGAGGAUAUGUUGGGAAUGAUCCUUUCGGAUUGACACAGAAGGCACAUGAGGAUCACCCAUGUGGGUG [Eternabot (L1) Solution 70] (Eterna round: R97, puzzle: Exclusion 4)”, the “apparent KD of MS2 coat protein” value reads like this: (input ligand: FMN 200 uM) 332 nM; (input ligand: none) 591 nM.

“ACGAGCAGACGGAGAUCCAACAUGAGGAUCACCCAUGUCUGGAAAGCUUUUUGCUUGUCUUAUCCUCCUCUGUUAGC [Design #10] (Eterna round: R97, puzzle: Sensor, turn-off variant 1)”: the “apparent KD of MS2 coat protein” value by setting is: (input ligand: FMN 200 uM) 12.4 nM; (input ligand: none) 11.9 nM.

Regarding “ACGAUGACAGAAAGAAGUCAAAAGACAUGAGGAUCACCCAUGUAGGAUAUGGCUACGAAAAGUAGUCAGAAGGACUUGUCAUCA [Omei Exc(NG) 3 Av2] (Eterna round: R96, puzzle: Exclusion NG 3)”, the “apparent KD of MS2 coat protein” value reads like this: (input ligand: FMN 200 uM) 13.1 nM; under setting [1], 9.48 nM; (input ligand: none) 14.3 nM.

Regarding “ACGAUGACCGAAAGAUGUCAAAAGACAUGAGGAUCACCCAUGUAGGAUAUGGCUACGAAAAGUAGUCAGAAGGACAUGUCAUCA [Omei Exc(NG) 3 A] (Eterna round: R96, puzzle: Exclusion NG 3)”, the “apparent KD of MS2 coat protein” value is, setting by setting: (input ligand: FMN 200 uM) 15.1 nM; under setting [1], 12.3 nM; (input ligand: none) 14.8 nM.

Turning to “ACGCCGCAAGGAUAUACUUGCGGUGAUGUUCGAGUUCUUCUACUUGAGGAUCACCCAAGUAGAAGGUGCGAUGG [jl-ex2.4.61 ViennaUCT mod] (Eterna round: R97, puzzle: Exclusion 2)”, the “apparent KD of MS2 coat protein” value amounted to 13.7 nM (input ligand: FMN 200 uM) and 13.8 nM (input ligand: none).

Take “ACGGGUAAGUAAGGAUAUCCAACAGGCUGAUUUCAGUCUGAACAUGAGGAUCACCCAUGUGGGUGGGAGAAGGUACUCUCCCGC [Atbienarza] (Eterna round: R96, puzzle: Exclusion NG 2)”: the “apparent KD of MS2 coat protein” value by setting is: (input ligand: FMN 200 uM) 107 nM; under setting [1], 86.3 nM; (input ligand: none) 114 nM.

With “ACGUACAAGCCGAUCCUAAACAUGAGGAUCACCCAUGUGCUCGUUUUGUAAAGUACUAUCACGAAAGUGAUAGUACA (Eterna round: R97, puzzle: Sensor, turn-off variant 1)”, the “apparent KD of MS2 coat protein” value is, setting by setting: (input ligand: FMN 200 uM) 114 nM; (input ligand: none) 122 nM.

Turning to “ACGUGAUAUCUGUCGGUGGACAUGAGGAUCACCCAUGUAAGCUUUCUGCUCGUCUUAUAACCCGGUGACAGACCUUC [Diteerquus] (puzzle: Sensor v3, turn-off variant 1)”, the “apparent KD of MS2 coat protein” value is, setting by setting: under setting [3], 45.3 nM; under setting [2], 310 nM; under setting [4], 56.9 nM.

With “ACUAGAUGAGGAUAUACACAUUUUAGUGUUCCUCUAGAUUAACAUGAGGAUCACCCAUGUAGAAGGCAUCAAUU [Exclusion 2 - 11] (Eterna round: R96, puzzle: Exclusion 2)”, the “apparent KD of MS2 coat protein” value reads like this: (input ligand: FMN 200 uM) 294 nM; under setting [1], 52.8 nM; (input ligand: none) 63 nM.

For the sequence “ACUAGAUGAGGAUAUACACAUUUUAGUGUUCCUCUAGAUUAACAUGAGGAUCACCCAUGUAGAAGGCAUCAAUU [Exclusion 2 - 11] (puzzle: Exclusion 2)”, the “apparent KD of MS2 coat protein” value under setting [2] was 57.8 nM.

On to “ACUAGGAGAUUAGGAUAUCUAUCUCACAUGAGGAUCACCCAUGUAUAAGCGUCCUAAAGGUGGAUGGAGAAGGGAUGUCCGAAG [Eternabot solution 13] (Eterna round: R96, puzzle: Exclusion NG 2)”, for which the “apparent KD of MS2 coat protein” value turned out to be 14.1 nM (input ligand: FMN 200 uM), 13.8 nM under setting [1] and 17.5 nM (input ligand: none).

For the sequence “ACUAGGCGAGGAUAUACAUGCUUAACGCAGGAAAAGCUGCGACAUGAGGAUCACCCAUGUAGAAGGCGCAAAUA [Xege] (Eterna round: R96, puzzle: Exclusion 2)”, the “apparent KD of MS2 coat protein” value (input ligand: FMN 200 uM) came to 78.1 nM, the “apparent KD of MS2 coat protein” value under setting [1] is 14.6 nM and the “apparent KD of MS2 coat protein” value (input ligand: none) was 20 nM.

As for “ACUAGGCGAGGAUAUACAUGCUUAACGCAGGAAAAGCUGCGACAUGAGGAUCACCCAUGUAGAAGGCGCAAAUA [Xege] (puzzle: Exclusion 2)”, under setting [2], the “apparent KD of MS2 coat protein” value worked out at 15.4 nM.

As for “ACUCCUCCUGUUAGGAUAUGCAUCGGGCUUCCGCAGCAGAAGGAACAUGAGGAUCACCCAUGUCAAAUAAAAUC (Eterna round: R97, puzzle: Brourd's mod of Exclusion 4)”, the “apparent KD of MS2 coat protein” value is 243 nM (input ligand: FMN 200 uM) and 26.3 nM (input ligand: none).

Consider “ACUCCUCCUGUUAGGAUAUGCAUCGGGCUUCCGCAGCAGAAGGAACAUGAGGAUCACCCAUGUCAAAUAAAAUC [Inxebexe] (Eterna round: R96, puzzle: Brourd's mod of Exclusion 4)”, for which the “apparent KD of MS2 coat protein” value runs as follows: (input ligand: FMN 200 uM) 153 nM; under setting [1], 20.7 nM; (input ligand: none) 26.9 nM.

“ACUCCUCCUGUUAGGAUAUGCAUCGGGCUUCCGCAGCAGAAGGAACAUGAGGAUCACCCAUGUCAAAUAAAAUC [Inxebexe] (puzzle: Brourd's mod of Exclusion 4)”: under setting [2], the “apparent KD of MS2 coat protein” value amounted to 18.9 nM.

As to “ACUGGAGCAGGAUAUACAUUCGUGCUUCGGCACGUAAGAUCACAUGAGGAUCACCCAUGUAGAAGGGCUCCAGU [E2/5-D1] (Eterna round: R97, puzzle: Exclusion 2)”, the “apparent KD of MS2 coat protein” value (input ligand: FMN 200 uM) is 970 nM and the “apparent KD of MS2 coat protein” value (input ligand: none) is 122 nM.

“ACUGUUGCAGGAUAUAUGGUGCUAGACAUGAGGAUCACCCAUGUAGGCCUUGUCUAGCAGGUAGAAGGGCACCCAC [Eternabot (L1) Solution 94] (Eterna round: R97, puzzle: Exclusion 5)”: the “apparent KD of MS2 coat protein” value (input ligand: FMN 200 uM) amounted to 503 nM and the “apparent KD of MS2 coat protein” value (input ligand: none) turned out to be 224 nM.

“ACUUACUGAGGAUAUACAUAGAUUUACAUGAGGAUCACCCAUGUUCCUCUAUGUAUAAAUGUAGAAGGCAGAAGUU [Mat - Exclusion 5 - JL Mod - D56] (Eterna round: R97, puzzle: Exclusion 5)”: the “apparent KD of MS2 coat protein” value by setting is: (input ligand: FMN 200 uM) 107 nM; (input ligand: none) 21.5 nM.

For the sequence “ACUUAUAGAGGAUAUACAGAAUAUUACAUGAGGAUCACCCAUGUUCUUCAAUGUAUAUAUGUAGAAGGCUAAGGAA [JL-ex5-4.22 Malcolm mod] (Eterna round: R97, puzzle: Exclusion 5)”, the “apparent KD of MS2 coat protein” value amounted to 252 nM (input ligand: FMN 200 uM) and 88.8 nM (input ligand: none).

For the sequence “ACUUAUCAUGUAGGAUAUGCGUGGCGAAGCUAUGCAGAAGGACAUGAGGAUCACCCAUGUUUUAGCGUCUGCGUACAGAUGCGU [JL ENG1 1.45] (Eterna round: R96, puzzle: Exclusion NG 1)”, the “apparent KD of MS2 coat protein” value under setting [1] was 39 nM.
